Data from doi:10.1101/2023.05.28.542642 (bioRxiv, 2023).
Ends that are not written are not given here.

Target: calmodulin (recombinant bovine CaM) (bovine, UniProt P62157 1-149)
Experiment: fluorescence polarisation

B1: MARCKS effector domain (aa 151-175) labeled with BODIPY TR (peptide)
peptide: {BODIPY TR‑X}-KKKKKRFSFKKSFKLSGFSFKKNKK
binding result: binds
